The record followed here is patent US20250163186A1 (PHYLAXIS BIOSCIENCE, published 2025).

One assay deals with T1, human IgE (human, UniProt P01854 1-428).
T1 construct: written under the same molecule; also called IgE (Abcam ab65866); soluble IgE
The experiment in a line: ELISA, clone lysate on IgE-coated plate. An excerpt:
Each amino acid in CDR1 (SEQ ID NO:3), CDR2 (SEQ ID NO:68), and CDR3 (SEQ ID NO:74) was randomly replaced such that the 20 natural amino acids would likely all have been sampled at every position. The expression vector for the VHH containing the mutagenized CDRs was then transfected into E. coli, and at least 96 clones were randomly chosen for each position mutated in each CDR. This gives likely coverage of all potential mutations at each position since the probability to get any given amino acid at that position is 5%. […] The heat maps represent the relative binding for each clone determined by the range of OD values from the ELISA background to WT CDR binding (FIGS. 16A-16C). Site numbering for each residue tested is indicated by the inset tables in FIGS. 16A-16C.

The target of assay [1] is T2, CH2-4 constant domains of human IgE linked to a transmembrane protein, on 293 cells (human, UniProt P01854-1 104-428).
T2 construct: domain: CH2-4 constant domains; also called human IgE-expressing 293 cells
T2 sequence (P01854 other isoform, or with tags, fused parts or gaps): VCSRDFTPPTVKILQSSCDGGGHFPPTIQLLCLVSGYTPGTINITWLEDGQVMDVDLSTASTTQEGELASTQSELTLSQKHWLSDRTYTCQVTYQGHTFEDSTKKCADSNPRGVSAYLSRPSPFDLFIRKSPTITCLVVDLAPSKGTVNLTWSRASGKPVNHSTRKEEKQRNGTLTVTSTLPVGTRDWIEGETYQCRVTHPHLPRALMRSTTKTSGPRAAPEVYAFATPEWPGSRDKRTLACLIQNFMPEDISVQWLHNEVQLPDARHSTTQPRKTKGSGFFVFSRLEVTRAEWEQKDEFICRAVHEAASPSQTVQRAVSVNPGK
In words: flow cytometry, 293 cells expressing human IgE CH2-4. How it is done:
First, 25 μg of DNA was added to Opti-MEM Reduced Serum Medium (Gibco) mixed with 75 μL of 40 kDa Polyethylenimine (PEI) for a final concentration of 1 μg DNA and 2.5 μg PEI per mL of culture volume. The plasmid DNA was allowed to pre-complex with PEI for 15 minutes before transferring the mixture to 25 mL of 293 cells in a shake flask at a density of 2×10⁶ cells/mL. […] Next, 50 μL of cells were transferred to wells of a round-bottom 96-well assay plate for a total of 50,000 293 cells per well. In a separate 96-well plate, monomeric VHH-hIgG1-Fc fusion proteins were titrated 1:5 in a 8-point dilution series starting at 1 μM in FACS Buffer with the 8th point containing no antibody. 50 μL from each antibody dilution was added to wells containing 50 μL of FACS Buffer with transfected 293 cells which produced a 2-fold dilution of the antibody concentrations from the dilution series resulting in a 500 nM final, starting concentration of the test article titration. The test articles and 293 cells were incubated together at 4° C. for 30 minutes. Next, the 96-well plates were centrifuged at 400×g for 5 minutes and the FACS buffer containing unbound antibody was decanted. Cells were washed 1× with 150 μL 4° C. FACS Buffer. […] The cells were incubated with the fluorophore conjugated detection antibody at 4° C. for 20 minutes. 293 cells were then centrifuged and washed once as described above. Cell pellets were resuspended in 30 μL FACS Buffer and analyzed on an iQue Screener Plus flow cytometer (Sartorius, IntelliCyt) with a 1 second sip time and 1 second void time. Mean fluorescent intensity was calculated using iQue onboard software gating on GFP+ or citrine+ cells.
(In flow cytometry, cells or beads pass a laser one at a time.)

T1 sequence (P01854 other isoform, or with tags, fused parts or gaps limits assumed, form in doubt): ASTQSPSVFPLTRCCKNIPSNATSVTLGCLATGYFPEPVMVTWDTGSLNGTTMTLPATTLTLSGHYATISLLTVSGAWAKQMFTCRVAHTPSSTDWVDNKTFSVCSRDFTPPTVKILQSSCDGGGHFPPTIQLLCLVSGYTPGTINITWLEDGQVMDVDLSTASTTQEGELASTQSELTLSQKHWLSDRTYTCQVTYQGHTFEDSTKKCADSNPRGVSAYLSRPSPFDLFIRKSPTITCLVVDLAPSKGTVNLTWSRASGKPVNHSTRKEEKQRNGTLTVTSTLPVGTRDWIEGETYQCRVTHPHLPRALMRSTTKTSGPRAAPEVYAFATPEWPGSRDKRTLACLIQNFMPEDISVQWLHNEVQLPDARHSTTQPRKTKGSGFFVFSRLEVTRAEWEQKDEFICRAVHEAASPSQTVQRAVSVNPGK

B1: 9D1 (VHH)
VHH: EVQLLESGGGEVQPGGSLRLSCVASGLTFSSYNIGWLRQAPGKEREFVGLSGSSSTSTYYAESVKGRFTISRDNAKNTVYLQMTSLRAEDTAVYYCAARRLLSTYWSDRSWDFWGQGTLVTVEP
notes: also called hzB10v40 VHH, CDR1 site 9 M to I
Consider B1, for which, in the assay with human IgE, the “Confirm OD450 Duplicate1” value was 0.435, the “Confirm OD450 Duplicate2” value worked out at 0.442 and the “R1 Screening OD450” value came out at 0.905.

B2: 33-2C4 (VHH)
VHH: EVQLLESGGGEVQPGGSLRLSCVASGLTFSSYNMGWLRQAPGKEREFVGLSGSSSTSTYYAESVKGRFTISRDNAKNTVYLQMTSLRAEDTAVYYCAARRLFSTYWSDRSWDFWGQGTLVTVEP
In the case of B2, in the assay with human IgE, the “Confirm OD450 Duplicate1” value turned out to be 0.514, the “Confirm OD450 Duplicate2” value was found to be 0.523 and the “R1 Screening OD450” value was determined as 1.

B3: 39E11 (VHH)
VHH: EVQLLESGGGEVQPGGSLRLSCVASGLTFSSYNMGWLRQAPGKEREFVGLSGSSSTSTYYAESVKGRFTISRDNAKNTVYLQMTSLRAEDTAVYYCAARRLLSTYWSHRSWDFWGQGTLVTVEP
Turning to B3, in the assay with human IgE, the “Confirm OD450 Duplicate1” value was 0.55, the “Confirm OD450 Duplicate2” value was 0.534 and the “R1 Screening OD450” value is 1.01.

B4: 32F11 (VHH)
VHH: EVQLLESGGGEVQPGGSLRLSCVASGLTFSSYNMGWLRQAPGKEREFVGLSGSSSTSTYYAESVKGRFTISRDNAKNTVYLQMTSLRAEDTAVYYCAARRRLSTYWSDRSWDFWGQGTLVTVEP
In the case of B4, in the assay with human IgE, the “Confirm OD450 Duplicate1” value was found to be 0.557, the “Confirm OD450 Duplicate2” value was 0.557 and the “R1 Screening OD450” value amounted to 0.924.

B5: 9G9 (VHH)
VHH: EVQLLESGGGEVQPGGSLRLSCVASGLTFSSYNTGWLRQAPGKEREFVGLSGSSSTSTYYAESVKGRFTISRDNAKNTVYLQMTSLRAEDTAVYYCAARRLLSTYWSDRSWDFWGQGTLVTVEP
notes: also called hzB10v40 VHH, CDR1 site 9 M to T
Take B5: in the assay with human IgE, the “Confirm OD450 Duplicate1” value stood at 0.535, the “Confirm OD450 Duplicate2” value turned out to be 0.524 and the “R1 Screening OD450” value turned out to be 0.886.

B6: 10E3 (VHH)
VHH: EVQLLESGGGEVQPGGSLRLSCVASGLTFSSYNMSWLRQAPGKEREFVGLSGSSSTSTYYAESVKGRFTISRDNAKNTVYLQMTSLRAEDTAVYYCAARRLLSTYWSDRSWDFWGQGTLVTVEP
notes: also called hzB10v40 VHH, CDR1 site 10 G to S
As to B6, in the assay with human IgE, the “Confirm OD450 Duplicate1” value is 0.508, the “Confirm OD450 Duplicate2” value amounted to 0.494 and the “R1 Screening OD450” value was determined as 0.846.

B7: 44C1 (VHH)
VHH: EVQLLESGGGEVQPGGSLRLSCVASGLTFSSYNMGWLRQAPGKEREFVGLSGSSSTSTYYAESVKGRFTISRDNAKNTVYLQMTSLRAEDTAVYYCAARRLLSTYWSDRSWDMWGQGTLVTVEP
For the molecule B7, in the assay with human IgE, the “Confirm OD450 Duplicate1” value is 0.556, the “Confirm OD450 Duplicate2” value is 0.537 and the “R1 Screening OD450” value is 1.06.

B8: 9F1 (VHH)
VHH: EVQLLESGGGEVQPGGSLRLSCVASGLTFSSYNSGWLRQAPGKEREFVGLSGSSSTSTYYAESVKGRFTISRDNAKNTVYLQMTSLRAEDTAVYYCAARRLLSTYWSDRSWDFWGQGTLVTVEP
notes: also called hzB10v40 VHH, CDR1 site 9 M to S
B8: in the assay with human IgE, the “Confirm OD450 Duplicate1” value turned out to be 0.498, the “Confirm OD450 Duplicate2” value turned out to be 0.467 and the “R1 Screening OD450” value was 0.921.

B9: 9E8 (VHH)
VHH: EVQLLESGGGEVQPGGSLRLSCVASGLTFSSYNLGWLRQAPGKEREFVGLSGSSSTSTYYAESVKGRFTISRDNAKNTVYLQMTSLRAEDTAVYYCAARRLLSTYWSDRSWDFWGQGTLVTVEP
notes: also called hzB10v40 VHH, CDR1 site 9 M to L
Turning to B9, in the assay with human IgE, the “Confirm OD450 Duplicate1” value is 0.522, the “Confirm OD450 Duplicate2” value was determined as 0.539 and the “R1 Screening OD450” value was 0.897.

B10: 33-2A2 (VHH)
VHH: EVQLLESGGGEVQPGGSLRLSCVASGLTFSSYNMGWLRQAPGKEREFVGLSGSSSTSTYYAESVKGRFTISRDNAKNTVYLQMTSLRAEDTAVYYCAARRLKSTYWSDRSWDFWGQGTLVTVEP
As for B10, in the assay with human IgE, the “Confirm OD450 Duplicate1” value stood at 0.557, the “Confirm OD450 Duplicate2” value was 0.564 and the “R1 Screening OD450” value was determined as 1.01.

B11: 33-2C5 (VHH)
VHH: EVQLLESGGGEVQPGGSLRLSCVASGLTFSSYNMGWLRQAPGKEREFVGLSGSSSTSTYYAESVKGRFTISRDNAKNTVYLQMTSLRAEDTAVYYCAARRLHSTYWSDRSWDFWGQGTLVTVEP
For the molecule B11, in the assay with human IgE, the “Confirm OD450 Duplicate1” value came out at 0.525, the “Confirm OD450 Duplicate2” value stood at 0.573 and the “R1 Screening OD450” value was 1.01.

B12: 28H1 (VHH)
VHH: EVQLLESGGGEVQPGGSLRLSCVASGLTFSSYNMGWLRQAPGKEREFVGLSGSSSTSTYYAESVKGRFTISRDNAKNTVYLQMTSLRAEDTAVYYCSARRLLSTYWSDRSWDFWGQGTLVTVEP
As to B12, in the assay with human IgE, the “Confirm OD450 Duplicate1” value came to 0.471, the “Confirm OD450 Duplicate2” value was determined as 0.492 and the “R1 Screening OD450” value worked out at 0.927.

B13: 35G3 (VHH)
VHH: EVQLLESGGGEVQPGGSLRLSCVASGLTFSSYNMGWLRQAPGKEREFVGLSGSSSTSTYYAESVKGRFTISRDNAKNTVYLQMTSLRAEDTAVYYCAARRLLSRYWSDRSWDFWGQGTLVTVEP
Regarding B13, in the assay with human IgE, the “Confirm OD450 Duplicate1” value is 0.593, the “Confirm OD450 Duplicate2” value came to 0.612 and the “R1 Screening OD450” value worked out at 1.07.

B14: 9H9 (VHH)
VHH: EVQLLESGGGEVQPGGSLRLSCVASGLTFSSYNFGWLRQAPGKEREFVGLSGSSSTSTYYAESVKGRFTISRDNAKNTVYLQMTSLRAEDTAVYYCAARRLLSTYWSDRSWDFWGQGTLVTVEP
notes: also called hzB10v40 VHH, CDR1 site 9 M to F
In the case of B14, in the assay with human IgE, the “Confirm OD450 Duplicate1” value is 0.49, the “Confirm OD450 Duplicate2” value is 0.5 and the “R1 Screening OD450” value came out at 0.88.

B15: 39C11 (VHH)
VHH: EVQLLESGGGEVQPGGSLRLSCVASGLTFSSYNMGWLRQAPGKEREFVGLSGSSSTSTYYAESVKGRFTISRDNAKNTVYLQMTSLRAEDTAVYYCAARRLLSTYWSMRSWDFWGQGTLVTVEP
Regarding B15, in the assay with human IgE, the “Confirm OD450 Duplicate1” value stood at 0.562, the “Confirm OD450 Duplicate2” value worked out at 0.585 and the “R1 Screening OD450” value amounted to 1.

B16: 10G10 (VHH)
VHH: EVQLLESGGGEVQPGGSLRLSCVASGLTFSSYNMAWLRQAPGKEREFVGLSGSSSTSTYYAESVKGRFTISRDNAKNTVYLQMTSLRAEDTAVYYCAARRLLSTYWSDRSWDFWGQGTLVTVEP
notes: also called hzB10v40 VHH, CDR1 site 10 G to A
Turning to B16, in the assay with human IgE, the “Confirm OD450 Duplicate1” value was 0.484, the “Confirm OD450 Duplicate2” value was determined as 0.479 and the “R1 Screening OD450” value worked out at 0.966.

B17: 44A11 (VHH)
VHH: EVQLLESGGGEVQPGGSLRLSCVASGLTFSSYNMGWLRQAPGKEREFVGLSGSSSTSTYYAESVKGRFTISRDNAKNTVYLQMTSLRAEDTAVYYCAARRLLSTYWSDRSWDKWGQGTLVTVEP
On to B17, for which, in the assay with human IgE, the “Confirm OD450 Duplicate1” value worked out at 0.661, the “Confirm OD450 Duplicate2” value was determined as 0.654 and the “R1 Screening OD450” value came out at 1.14.

B18: hzB10v4-NNT (Fc fusion)
VHH-Fc: EVQLVQSGGELVQAGGSLRLSCVASGLTFSSYNMGWLRQAPGKEREFVGMSGSSSTSTYYAESVKGRFTISRDNAKNTLYLQMSSLRAEDTAVYYCAARRMLSTYWSDRSWDFWGQGTQVTVKPGGPSVFLFPPKPKDTLMISRTPEVTCVVVDVSHEDPEVKFNWYVDGVEVHNAKTKPREEQYNSTYRVVSVLTVLHQDWLNGKEYKCKVSNKALPAPIEKTISKAKGQPREPQVYTLPPSRDELTKNQVNLTCLVKGFYPSDIAVEWESNGQPENNYKTTPPVLDSDGSFFLNSTLTVDKSRWQQGNVFSCSVMHEALHNHYTQKSLSLSPGK
notes: monomeric
By Kd is commonly meant the concentration at which binding is half-saturated. In the case of B18, in assay [1], the Bmax was determined as 3.89e+06 MFI and the affinity, expressed as Kd, was 75 nM.

B19: hzB10v5-NNT (Fc fusion)
VHH-Fc: EVQLVQSGGELVQAGGSLRLSCVASGLTFSSYNMGWLRQAPGKEREFVGMSGSSSTSTYYADSVKGRFTISRDNSKNTVYLQMNSLKPEDTAVYYCAARRMLSTYWSDRSWDFWGQGTQVTVEPGGPSVFLFPPKPKDTLMISRTPEVTCVVVDVSHEDPEVKFNWYVDGVEVHNAKTKPREEQYNSTYRVVSVLTVLHQDWLNGKEYKCKVSNKALPAPIEKTISKAKGQPREPQVYTLPPSRDELTKNQVNLTCLVKGFYPSDIAVEWESNGQPENNYKTTPPVLDSDGSFFLNSTLTVDKSRWQQGNVFSCSVMHEALHNHYTQKSLSLSPGK
notes: monomeric
For the molecule B19, the Kd in assay [1] amounted to 2.5 nM.
